Patent publication US20250064958A1 (Eli Lilly, published 2025)

How the values were obtained:
human TfR ECD = target: T1, human TfR ECD (human, UniProt P02786 89-760); assay: SPR, Biacore 8K, 37 C, TfR ECD immobilized on CM4 chip, TBP as analyte, 2-state binding model, n = 3
T1 construct: extracellular domain; also called human Transferrin Receptor 1 extracellular domain
Protocol: (§1) Target human and Cynomolgous TfR ECDs were immobilized on a CM4 chip (Cytiva P/N 29104989) using standard NHS-EDC amine coupling. The TfR binding proteins were prepared at a final concentration of 0.3, 0.1, 0.033, 0.01, 0.0033, 0.001, 0.00033, 0.0001 μM respectively by dilution of stock solution into running buffer.
(§2) Binding analysis was performed in a multi-cycle kinetics manner. Each analysis cycle consists of (1) injection of the lowest to highest concentration proteins over all Fc at 50 μL/min for 140 seconds followed by return to buffer flow for 400 seconds to monitor dissociation phase; (2) regeneration of chip surfaces with injection of 3M magnesium chloride, for 30 seconds at 100 μL/min over all cells; and (3) equilibration of chip surfaces with a 50 μL (30-sec) injection of HBS-EP+. Data were processed using standard double-referencing and fit to a 2-state binding model using Biacore 8K Evaluation software, to determine the association rate (kₒₙ, M⁻¹s⁻¹ units), dissociation rate (koff, s⁻¹ units), and Rₘₐₓ (RU units). The equilibrium dissociation constant (KD) is calculated from the relationship KD=koff/kₒₙ, and is in molar units.

Cynomolgous TfR ECD = target: T2, Cynomolgous TfR ECD (Cynomolgus); assay: as above
T2 chain: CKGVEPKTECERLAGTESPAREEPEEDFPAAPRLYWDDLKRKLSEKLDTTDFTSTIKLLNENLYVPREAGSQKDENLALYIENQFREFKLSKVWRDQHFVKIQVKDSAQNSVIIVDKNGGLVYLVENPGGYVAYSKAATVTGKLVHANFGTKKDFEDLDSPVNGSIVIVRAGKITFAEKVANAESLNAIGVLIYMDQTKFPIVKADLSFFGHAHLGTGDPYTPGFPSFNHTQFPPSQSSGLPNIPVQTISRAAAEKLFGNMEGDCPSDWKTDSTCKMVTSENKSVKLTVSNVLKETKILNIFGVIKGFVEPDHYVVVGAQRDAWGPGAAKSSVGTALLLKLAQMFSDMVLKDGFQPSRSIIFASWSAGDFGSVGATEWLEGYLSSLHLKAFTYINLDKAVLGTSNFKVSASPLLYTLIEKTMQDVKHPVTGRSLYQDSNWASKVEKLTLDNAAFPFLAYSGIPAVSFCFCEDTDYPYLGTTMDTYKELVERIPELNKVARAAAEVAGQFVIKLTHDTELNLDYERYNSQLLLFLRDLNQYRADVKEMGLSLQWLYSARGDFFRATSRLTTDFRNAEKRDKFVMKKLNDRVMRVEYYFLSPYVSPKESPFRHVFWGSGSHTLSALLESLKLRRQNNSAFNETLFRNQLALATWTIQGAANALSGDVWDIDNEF
Protocol: as §1, §2

B1: TBP4 (One Arm Heteromab 1, A378C) (antibody, human IgG4 S228P, kappa, F234A L235A)
heavy: EVQLVESGGGLVKPGGSLRLSCVASGFTFSSYSMNWVRQAPGKGLEWVSSISSSSSYIYYADSVKGRFTISRDNAKNSLYLQMNSLRAEDTAVYYCARRHGYSNSDAFDNWGQGTLVTVSSASTKGPSVFPLAPCSRSTSESTAALGCLVKDYFPEPVTVSWNSGALTSGVHTFPAVLQSSGLYSLSSVVTVPSSSLGTKTYTCNVDHKPSNTKVDKRVESKYGPPCPPCPAPEAAGGPSVFLFPPKPKDTLMISRTPEVTCVVVDVSQEDPEVQFNWYVDGVEVHNAKTKPREEQFNSTYRVVSVLTVLHQDWLNGKEYKCKVSNKGLPSSIEKTISKAKGQPREPQVSTLPPSQEEMTKNQVSLMCLVYGFYPSDICVEWESNGQPENNYKTTPPVLDSDGSFFLYSVLTVDKSRWQEGNVFSCSVMHEALHNHYTQKSLSLSLG
light: DIQMTQSPSAMSASVGDRVTITCRASQGISHYLVWFQQKPGKVPKRLIYAASSLQSGVPSRFSGSGSGTEFTLTISSLQPEDFATYYCLQHNSYPWTFGQGTKVEIKRTVAAPSVFIFPPSDEQLKSGTASVVCLLNNFYPREAKVQWKVDNALQSGNSQESVTEQDSKDSTYSLSSTLTLSKADYEKHKVYACEVTHQGLSSPVTKSFNRGEC
chain: ESKYGPPCPPCPAPEAAGGPSVFLFPPKPKDTLMISRTPEVTCVVVDVSQEDPEVQFNWYVDGVEVHNAKTKPREEQFNSTYRVVSVLTVLHQDWLNGKEYKCKVSNKGLPSSIEKTISKAKGQPREPQVYTLPPSQGDMTKNQVQLTCLVKGFYPSDICVEWESNGQPENNYKTTPPVLDSDGSFFLASRLTVDKSRWQEGNVFSCSVMHEALHNHYTQKSLSLSLG
notes: One-arm heteromab, IgG4 PAA, monovalent for human TfR; also called OAH1
- Kd (human TfR ECD): 0.154 µM
- Kd (Cynomolgous TfR ECD): 0.3 µM
